This assay addresses T1, TRAIL-R2/Fc fusion protein (R & D Systems) (UniProt O14763 54-182, limits assumed).
T1 construct: not shown: Fc part of the bought fusion; captured with anti-human IgG Fc antibody
The experiment in a line: biosensor, TRAIL-R2-Fc fusion protein immobilized; mono-, bi- and tetravalent D1 constructs injected. How it is done:
FIG. 19. Binding affinity of Tn3 monomers and multimers. Depicted in this panel are sensorgrams from a Biosensor binding experiment using mono-, bi- and tetravalent 1C12 and D1 Tn3 constructs. TRAIL-R2-Fc fusion protein was immobilized on a sensor chip while sample proteins were injected over the chip. “tetra” refers to the tetravalent Cκ/IGHG1 fusion constructs.
A qualitative comparison of binding by monomeric 1C12, 1C12-Fc and 1C12-Cκ/1C12-IGHG1 proteins was performed by injecting samples of each of these proteins over a TRAIL-R2 chip on an Attana biosensor instrument.

T1 sequence (O14763 54-182 limits assumed): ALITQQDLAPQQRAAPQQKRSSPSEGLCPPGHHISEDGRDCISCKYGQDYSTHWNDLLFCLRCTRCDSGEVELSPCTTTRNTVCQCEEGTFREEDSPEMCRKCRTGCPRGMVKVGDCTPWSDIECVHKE

B1: D1 (designed binder)
chain: IEVKDVTDTTALITWSPGERIWMFTGCELTYGIKDVPGDRTTIDLTEDENQYSIGNLKPDTEYEVSLICPNYERISNPAKETFTT
For the molecule B1, the binding result is listed as “no binding”.

The record behind these values is patent US20100298541A1 (published 2010).
